The binders below were run against TIM-1 antigen (soluble extracellular domain of TIM-1, CG57008-02, with a V5-HIS tag) (human) (UniProt Q96D42) (assay: BIAcore 2000, mAb captured on goat anti-human surface, TIM-1 antigen injected, 25 C).

Binder	Kd [nM]
anti-TIM-1 mAb 1.37 (antibody, human IgG2, V domains shown) VH: EVQLVESGGGLVQPGGSLRLSCAASGFTFTNYWMSWVRQAPGKGLEWVANIQQDGSEKYYVDSVRGRFTISRDNAKNSLYLQMNSLRAEDSAVYYCARWDYWGQGTLVTVSS VL: DIVMTQTPLSSTVILGQPASISCRSSQSLVHSDGNTYLNWLQQRPGQPPRLLIYMISNRFSGVPDRFSGSGAGTDFTLKISRVEAEDVGVYYCMQATESPQTFGQGTKVEIKR	2.78
anti-TIM-1 mAb 1.29 (antibody, human IgG2, V domains shown) VH: QVQLQESGPGLVKPSETLSLTCTVSGGSVSSGGYYWSWIRQPPGKGLEWIGFIYYTGSTNYNPSLKSRVSISVDTSKNQFSLKLSSVTAADAAVYYCARDYDWSFHFDYWGQGTLVTVSS VL: DIQMTQSPSSLSASIGDRVTITCRASQGIRNDLGWYQQKPGKAPKRLIYAASSLQSGVPSRFSGSGSGTEFTLTISSLQPEDFATYYCLQHNSYPLTFGGGTKVEIKR	3.64

Continued, values first:

Kd [nM]	Binder
1	anti-TIM-1 mAb 2.61 (antibody, human IgG4, V domains shown) VH: QVQLVEAGGGVVQPGRSLRLSCAASGFTFRSYGMHWVRQAPGKGLKWVAVIWYDGSNKYYTDSVKGRFTISRDNSKNTLYLQMNSLRAEDTAVYYCVRDYYDNSRHHWGFDYWGQGTLVTVSS VL: DIQMTQSPSSRCASVGDRVTITCRASQGIRNDLAWYQQKPGKAPKRLIYAASSLQSGVPSRFSGSRSGTEFTLTISSLQPEDFAAYYCLQHNSYPPSFGQGTKLEIKR
2.71	anti-TIM-1 mAb 2.70 (antibody, V domains shown) VH: QVQLVESGGGVVQPGRSLRLSCAASGFIFSRYGMHWVRQAPGKGLKWVAVIWYDGSNKLYADSVKGRFTISRDNSKNTLYLQMNSLRAEDTAVYYCARDYYDNSRHHWGFDYWGQGTLVTVSS VL: DIVMTQTPLSLPVTPGEPASISCRSSRSLLDSDDGNTYLDWYLQKPGQSPQLLIYTLSYRASGVPDRFSGSGSGTDFTLKISRVEAEDVGVYYCMQRVEFPITFGQGTRLEIKR
